The values below are quoted from earlier work in paper PMC5007751.

This data set concerns the target RNA helicase A distal portion of helicase domain (Homo sapiens) (UniProt Q08211).

pKd: −log10 of the molar value.

Chain of UniProt Q08211 (Q08211 630-1020): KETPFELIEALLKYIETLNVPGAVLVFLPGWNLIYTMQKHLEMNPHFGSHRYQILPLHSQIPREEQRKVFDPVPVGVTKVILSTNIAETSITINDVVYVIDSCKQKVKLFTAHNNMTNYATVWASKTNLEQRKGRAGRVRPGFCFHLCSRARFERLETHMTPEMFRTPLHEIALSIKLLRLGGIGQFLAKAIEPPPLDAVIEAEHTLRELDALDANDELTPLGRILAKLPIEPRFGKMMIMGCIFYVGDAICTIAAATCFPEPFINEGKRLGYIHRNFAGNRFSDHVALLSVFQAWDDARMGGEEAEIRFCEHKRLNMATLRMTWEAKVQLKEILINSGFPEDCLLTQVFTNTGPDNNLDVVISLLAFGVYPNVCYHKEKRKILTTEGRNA

Turning to EWS/FLI (from UniProt Q01844), the pKd – broadly, the negative decadic logarithm of the Kd, by convention in mol/L – is 5.02.
